Holding throughout (assay): ELISA
In general terms: ELISA stands for enzyme-linked immunosorbent assay.

The target of assay [1] is T1, Ec FmlHLD.
T1 chain: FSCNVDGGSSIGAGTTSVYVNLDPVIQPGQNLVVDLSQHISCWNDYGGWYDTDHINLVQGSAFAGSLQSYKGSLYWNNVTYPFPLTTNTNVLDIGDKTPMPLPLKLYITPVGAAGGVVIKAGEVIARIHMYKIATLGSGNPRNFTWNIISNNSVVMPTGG

For assay [2], the target named is Ec FimHLD.
Assay [3] addresses T2, Kp FimHLD.
T2 chain: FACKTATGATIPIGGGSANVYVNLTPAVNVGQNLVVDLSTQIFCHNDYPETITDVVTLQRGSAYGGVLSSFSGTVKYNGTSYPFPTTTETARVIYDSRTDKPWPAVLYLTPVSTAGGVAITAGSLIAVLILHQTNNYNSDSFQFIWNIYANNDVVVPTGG

B1: Kp 1A09 (antibody, V domains shown)
VH: EVQLQQPGAELVKPGASVKLSCKASGYTFTSYWMHWVKQRPGQGLEWIGLIHPNSGSTYYNEKFKNKATLTVDKSSSTAYMQLSSLTSEDSAVYYCARWDDSYWYFKVWGTGTTVTVSS
VL: QIVLTQSPAILSASPGEKVTMTCRASSSVSYMHWYQQKPGSSPKPWIYATSNLASGVPARFSGSGSGTSYSLTISRVEAEDAATYYCQQWSSNPYTFGGGTKLEIKR
Broadly, the EC50 is the concentration needed to bring the measured effect to its halfway point. A high value points to lower potency in that assay. As to B1, the results for the EC50 in assay [1], in assay [2] and in assay [3] were 0.018 µg/mL, 0.0135 µg/mL and 0.0161 µg/mL, respectively.

B2: Kp 1E07 (antibody, V domains shown)
VH: EVQLQQPGAELVKPGASVKLSCKASGYTFTSYWMHWVKQRPGQGLEWIGLIHPNSGSTYYNEKFKNKATLTVDKSSSTAYMQLSSLTSEDSAVYYCARWDDSYWYFKVWGTGTTVTVSS
VL: QIVLTQSPAILSASPGEKVTMTCRASSSVSYMHWYQQKPGSSPKPWIYATSNLASGVPARFSGSGSGTSYSLTISRVEAEDAATYYCQQWSSNPYTFGGGTKLEIKR
For B2, the EC50 in assay [1] was 0.0117 µg/mL; in assay [2] it was 0.0094 µg/mL; in assay [3] it was 0.0115 µg/mL.

B3: Kp1 2E02 (antibody, V domains shown)
VH: EVQLQQSGPVLVKPGPSVKISCKASGFTFTDYYIHWVKRSHGKSLEWIGLVSPYNGGTFYNQKFKGKATLTVDTSSNTAYMELTSLTSEDSAVYYCARLGVNWYFDVWGTGTTVTVSS
VL: QIVLTQSPALMAASPGEKVTLTCSVSSSISSSTLHWYQQKSETSPKPWIYGTSNLASGVPVRFSGSGSGTSYSLTISSMEAEDAATYYCQQWSTYPYTFGGGTKLEIKR
As to B3, the EC50 in assay [1] was 0.0097 µg/mL; in assay [2] it was 0.0127 µg/mL; in assay [3] it was 0.0127 µg/mL.

B4: Ec H9 (antibody, V domains shown)
VH: EVQLQQSGPVLVKPGPSVKISCKASGFTFTDYFVHWVKQSHGKSLEWIGLVSPYNGGTYYNQQFKGKATLTVDTSSSTAYMDLNSLTSEDSAVYYCARLLRGYWYFDVWGTGTTVTVSS
VL: QIVLTQSPALMAASPGEKVTITCSVSSSISSSTLHWYQQKSETSPKPWIYGTSNLASGVPVRFGGSGSGTSYSLTISSMEAEDAATYYCQQWSTYPYTFGGGTKLEIKR
With B4, the EC50 in assay [1] is 0.015 µg/mL; in assay [2], 0.0301 µg/mL; in assay [3], 0.0243 µg/mL.

B5: Kp 2D10 (antibody, V domains shown)
VH: EVQLQQSGAELVKPGASVKLSCKASGYTFTTYWMHWMKQWPGQGLEWIGLIHPNSGSTYYNEKFKSKATLTVDKSSSTAYMQLSSLTSEDSAVYYCARFEELWGGYWYFDVWGTGTTVTVSS
VL: QIVLTQSPALMAASPGEKVTITCSVSSSISSSNLHWYQQKSETSPKPWIYGTSNLASGVPVRFSGSGSGTSYSLTISSMEAEDAATYYCQQWSSYPYTFGGGTKLEIKR
For the molecule B5, the EC50 in assay [1] worked out at 10.1 µg/mL; in assay [2] it was 0.0119 µg/mL; in assay [3] it was 0.0109 µg/mL.

B6: Kp1 1B03 (antibody, V domains shown)
VH: EVQLQQSGAELVKPGASVKLSCKASGYTFTSYWMHWVQQRPGQGLEWIGLIHPIGGGTHYNEKFKNKATLTVDKSSSTAYMQLSSLTSEDSAVYYCARLGTGPYYFDYWGQGTTLTVSS
VL: QIVLTQSPALMAASPGEKVTITCSVSSSISSSTLDWYQQKSETSPKPWVYGTSNLASGVPVRFSGSGSGTSYSLTISSMEAEDAATYYCQQWSSYPWTFGGGTKLEIKR
For B6, the figures for the EC50 in assay [1], in assay [2] and in assay [3] were 3.06 µg/mL, 0.0092 µg/mL and 0.0125 µg/mL, respectively.

B7: Kp 2H07 (antibody, V domains shown)
VH: EVQLQQSGPVLVKPGPSVNISCKASGFTFTDYYIHWVKQSHGKSLEWIGLVYPYSGGTYYNQKFKGKATLTVDASSSTAYMELGSLTSEDSAVYYCARLGDNFYYFDYWGQGTTLTVSS
VL: QIVLTQSPTLMAASPGEKVTITCSVSSSISSSNLHWYQQKSETSPKPWIYGTSNLASGVPVRFSGSGSGTSYSLTISSMEAEDAATYYCQQWRSYPYTFGGGTKLEIKR
For B7, the EC50 in assay [1] amounted to 2.72 µg/mL; in assay [2] it was 0.0104 µg/mL; in assay [3], 0.0137 µg/mL.

These data come from patent US20250304662A1 (published 2025).
